According to publication PMC5028935, “De novo synthesis of fatty acids is regulated by FapR protein in Exiguobacterium antarcticum B7, a psychrotrophic bacterium isolated from Antarctica”:

Biological target: T1, FapR (Exiguobacterium antarcticum B7, UniProt A0ABT6QZ49 1-189)
T1 sequence: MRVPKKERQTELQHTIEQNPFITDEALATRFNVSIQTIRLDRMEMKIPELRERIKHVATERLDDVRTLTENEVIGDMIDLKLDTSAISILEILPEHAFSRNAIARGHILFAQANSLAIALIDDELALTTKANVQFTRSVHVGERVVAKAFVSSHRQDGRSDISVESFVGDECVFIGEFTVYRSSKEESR
Test: EMSA; 2, 2.8, 3.8 and 4.5 uM protein; no shift; 10 mM Tris-HCl (pH not given), 0.2 mM DTT, 0.2 mM EDTA, 0.25 mM KCl (so in the source), 1 h on ice; 7.5% native PAGE, SYBR Safe stain
Conditions: protein: recombinant; (pET-46 Ek/LIC vector adds a His tag); chain copies: 2

B1: fapR-plsX-fabD-fabG promoter, synthesized up to the palindrome (dsDNA)
DNA 1: TACTTGAAAGTGAACAACAAGGGATATATACTACTATTAGTACCAGGTAATAA
DNA 2: TTATTACCTGGTACTAATAGTAGTATATATCCCTTGTTGTTCACTTTCAAGTA
binding result: no binding
